Experiments:
Assay type in all cases: biochemical
PKC-zeta = target: T1, PKC-zeta (Homo sapiens, UniProt Q05513); experiment: In vitro kinase assay: peptide phosphorylation by PKC-zeta; conditions: for PKC-zeta phosphorylation: normalized to best substrate
T1 construct: purchased Calbiochem
T1 sequence (Q05513 1-592): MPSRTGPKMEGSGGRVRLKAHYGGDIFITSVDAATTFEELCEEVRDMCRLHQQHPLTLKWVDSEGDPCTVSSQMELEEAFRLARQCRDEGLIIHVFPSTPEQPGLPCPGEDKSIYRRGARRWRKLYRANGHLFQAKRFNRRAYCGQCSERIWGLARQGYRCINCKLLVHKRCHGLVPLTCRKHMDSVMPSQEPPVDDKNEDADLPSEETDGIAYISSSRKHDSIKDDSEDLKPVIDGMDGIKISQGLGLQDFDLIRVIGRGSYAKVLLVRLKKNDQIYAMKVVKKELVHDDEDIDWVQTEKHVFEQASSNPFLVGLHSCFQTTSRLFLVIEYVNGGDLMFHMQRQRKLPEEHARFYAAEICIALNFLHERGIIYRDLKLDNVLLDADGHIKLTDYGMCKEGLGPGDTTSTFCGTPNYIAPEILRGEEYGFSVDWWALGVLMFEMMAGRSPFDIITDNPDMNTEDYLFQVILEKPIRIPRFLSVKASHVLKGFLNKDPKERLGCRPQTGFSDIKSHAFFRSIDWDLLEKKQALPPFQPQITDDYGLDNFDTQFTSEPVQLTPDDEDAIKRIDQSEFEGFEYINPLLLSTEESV
Description: (§1) Catalytically active preparations of the kinases of interest were either purchased or prepared. Purchased and tested active kinase preparations including the following: PKC-alpha, PKC-delta, PKC-epsilon, PKC-zeta, PKC-mu, PKA, PKG from Calbiochem, ROK alpha/ROCK-II, active from Upstate Biotechnology, and AKT1 from Panvera.
(§2) The conditions of the kinase assay and the amount of active kinase used varied with the kinase and with the accuracy needed. For a typical experiment, 5-20 ng of kinase was used per well and each peptide pool was assayed in duplicate wells. Note that the absolute amount of kinase used was not usually a critical parameter, because the desired information related to specificity of the kinase not its absolute activity, and robustness of the assay depends on comparisons of the same amount of kinase on different peptides. The combination of kinase concentration and assay duration was modified to assure that the stoichiometry of peptide phosphorylation never exceeded 5%. The choice of kinase buffer depended on the kinase being analyzed. For studies of PKC, 100 mM HEPES, 0.05% Triton-X100, 1 mM CaCl2, 20 mM MgCl2, 0.2 mg/ml phosphatidyl serine (Avanti Polar Lipids), PMA 100 ng/ml was typically used. The lipid stock was prepared by transferring 3 mg phosphatidyl serine into iced mixture of 450 μl water plus 50 μl of 10% Triton-X100, sonicating 10 times on ice for 1 sec each.
(§3) The kinase reaction mixture was assembled by sequential addition to a tube held on ice of: 5 μl peptide (100 μM for final concentration of 10 μM), 15 μl of kinase (typically 5 ng/well, in appropriate kinase buffer), 30 μl of ATP (1 uCi/well of ^32P-gamma ATP in a stock of 167 μM cold ATP in the kinase buffer; for final concentration for 100 μM ATP). The mixture was rapidly warmed to desired reaction temperature (30° C. for PKC) and incubated for the desired duration (usually 10 minutes). The kinase assay was terminated by transfer to 4° C. water batch, and rapid addition of an equal volume (50 μl) of stop solution [0.1M ATP+0.1M EDTA in water, pH 8].
(§4) The peptides were then captured from the reaction mixture by transfer to a Reacti-Bind Streptavidin High Binding Capacity Coated Plates (HBC) (Pierce Biotechnology) as follows. The HBC plates were pre-rinsed three times with PBS/Tween PBS/Tween20 0.05% (PBS/Tween). Part of all of the reaction mixture was then transferred wells of a HBC plate pre-filled with 90 μl of phosphate-buffered saline (PBS); typically each aliquots of each phosphorylation reaction were transferred to duplicate HBC plates to assure accuracy by additional replication
(§5) For kinase assays done at the standard peptide concentration of 10 μM, the peptide concentration in the reaction mixture becomes 5 μM after addition of the stop solution; consequently 10 μl of the reaction (50 pMoles of peptide) was transferred to the HBC plate. More generally, the amount of reaction mixture transferred was estimated to be about 50 pMoles of peptide. […] The HBC plates were incubated for 0.5 to 1.5 hr at room temperature for complete binding of biotinylated peptides to plate-bound streptavidin. The HBC plates were then washed extensively with PBS/Tween. Five washes were done routinely and additional wash steps were added if the wash solution removed from the plate had measurable radioactivity as detected using a Geiger counter. This step is essential to obtaining a good the signal to noise ratio because the fraction of radioactivity incorporated in the peptides was a tiny fraction of the total in the reaction mixture. The wells were air-dried. A volume of 40-50 μl of microScint-20 (Packard Instruments) was added to each well. The plates were covered with stick-on film sheet. Radioactive emissions were measured in a TopCount NXT Microplate Scintillation and Luminescence Counter (Packard Instruments). Typically samples were counted for 5 minutes (or more) to improve the signal to noise ratio when counts were low. […]

PKA = target: T2, PKA (Homo sapiens, UniProt P17612); experiment: In vitro kinase assay: peptide phosphorylation by PKA; conditions: normalized to best substrate
T2 construct: purchased Calbiochem
Description: as §1, §2, §3, §4, §5

PKC-delta = target: T3, PKC-delta (Homo sapiens, UniProt Q05655); experiment: In vitro kinase assay: peptide phosphorylation by PKC-delta; conditions: for PKC delta phosphorylation: normalized to best substrate;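 as to PKC delta phosphorylation: peptide concentration 10 nM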
T3 construct: purchased Calbiochem
How it was run: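 Biotin-Lys-dansyl-Lys-Pro-Pro-Gly-linked proteomic peptides (12–21-residue core) phosphorylated by PKC-delta in HEPES/Triton/CaCl2/MgCl2 buffer with phosphatidyl serine and PMA, 100 μM [γ-32P]ATP, 30° C., ~10 min, stoichiometry ≤5%; streptavidin-plate capture. Signal normalized as % of best peptide substrate.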

AKT1 = target: T4, AKT1 (Homo sapiens, UniProt P31749); experiment: In vitro kinase assay: peptide phosphorylation by AKT1; conditions: normalized to best substrate
T4 construct: purchased Panvera
Description: as §1, §2, §3, §4, §5

T3 sequence (Q05655 whole entry): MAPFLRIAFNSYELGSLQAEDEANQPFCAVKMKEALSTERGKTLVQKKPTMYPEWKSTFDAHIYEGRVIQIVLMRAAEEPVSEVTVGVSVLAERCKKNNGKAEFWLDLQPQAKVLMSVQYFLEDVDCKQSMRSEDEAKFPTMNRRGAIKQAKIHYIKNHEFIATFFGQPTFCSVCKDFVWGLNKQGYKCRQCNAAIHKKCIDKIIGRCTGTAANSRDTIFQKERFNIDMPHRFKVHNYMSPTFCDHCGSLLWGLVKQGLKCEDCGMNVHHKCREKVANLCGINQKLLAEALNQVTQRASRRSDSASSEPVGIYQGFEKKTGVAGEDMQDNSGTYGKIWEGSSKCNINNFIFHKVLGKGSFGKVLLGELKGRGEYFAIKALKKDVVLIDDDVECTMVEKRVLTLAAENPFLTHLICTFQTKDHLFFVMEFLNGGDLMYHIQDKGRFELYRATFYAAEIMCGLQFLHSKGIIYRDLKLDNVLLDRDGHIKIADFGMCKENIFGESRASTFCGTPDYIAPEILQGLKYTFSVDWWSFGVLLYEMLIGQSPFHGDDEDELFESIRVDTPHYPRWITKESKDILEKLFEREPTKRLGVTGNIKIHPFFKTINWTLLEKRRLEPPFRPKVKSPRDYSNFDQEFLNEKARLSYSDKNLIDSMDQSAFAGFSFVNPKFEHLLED
T4 sequence (P31749 whole entry, species assumed): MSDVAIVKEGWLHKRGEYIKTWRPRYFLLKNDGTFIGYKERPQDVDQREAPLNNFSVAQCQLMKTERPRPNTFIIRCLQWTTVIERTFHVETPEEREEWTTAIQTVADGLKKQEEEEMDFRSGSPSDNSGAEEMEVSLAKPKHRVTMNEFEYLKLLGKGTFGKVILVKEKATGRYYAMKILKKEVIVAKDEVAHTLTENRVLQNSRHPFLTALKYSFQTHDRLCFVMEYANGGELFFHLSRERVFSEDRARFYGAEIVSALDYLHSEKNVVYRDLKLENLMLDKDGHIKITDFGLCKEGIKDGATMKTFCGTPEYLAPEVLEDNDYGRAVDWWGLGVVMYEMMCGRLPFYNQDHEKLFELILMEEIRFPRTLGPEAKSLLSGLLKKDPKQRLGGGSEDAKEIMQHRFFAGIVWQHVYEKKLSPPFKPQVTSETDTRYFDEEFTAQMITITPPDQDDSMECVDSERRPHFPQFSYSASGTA

Substance	PKC-zeta phosphorylation (PKC-zeta)	PKA phosphorylation (PKA)	PKC delta phosphorylation (PKC-delta)	AKT1 phosphorylation (AKT1)	phosphorylation by PKC zeta (PKC-zeta; peptide concentration 1 uM)	phosphorylation by PKC zeta (PKC-zeta; peptide concentration 10 uM)	phosphorylation by PKC-delta (PKC-delta; peptide concentration 1 uM)	phosphorylation by PKC-delta (PKC-delta; peptide concentration 10 uM)
103 (LLKKRDSFRTPRDSKLE) [compound 103]	8%	3%	12%	7%				
80 (KKKKKRFSFKKSFKL) [compound 80]	16%	3%	24%	6%				
108 (KATTKKRTLRKNDRK) [compound 108]	1%	0%	6%	1%				
101 (GAPPRRSSIRNAH) [compound 101]	3%	100%	13%	12%				
107 (QKRHARVTVKYDRRE) [compound 107]	1%	2%	10%	3%				
100 (WKGKRRSKARKKRK) [compound 100]	8%	2%	22%	3%				
96 (RGFLRSASLGRRASFHLE) [compound 96]	22%	86%	18%	32%				
84 (QKKSRLRRRASQLKI) [compound 84]	19%	63%	34%	10%				
113 (GENVLKKSMKSRVKG) [compound 113]	1%	0%	4%	9%				
111 (KKKRFSFKKSFKLSGFSFKK) [compound 111]	9%	3%	16%	3%				
105 (ALRRPSLRREADD) [compound 105]	4%	84%	9%	12%				
77 (KKKKRASFKRKSSKKG) [compound 77]	60%	4%	76%	8%				
154 (KKFFTQGWAGWRKKTSFRKP) [compound 154]					27	23	26	14
166 (MAQIERGEARIQRRISIKKA) [compound 166]					2	9	13	29
165 (TEEKSKKRKKKHRKNSRKHK) [compound 165]					1	2	25	19
143 (VRYTPYTISPYNRKGSFRKQ) [compound 143]					22	79	33	32

Substance	PKC-zeta phosphorylation (PKC-zeta)	PKA phosphorylation (PKA)	PKC delta phosphorylation (PKC-delta)	AKT1 phosphorylation (AKT1)	phosphorylation by PKC zeta (PKC-zeta; peptide concentration 1 uM)	phosphorylation by PKC zeta (PKC-zeta; peptide concentration 10 uM)	phosphorylation by PKC-delta (PKC-delta; peptide concentration 1 uM)	phosphorylation by PKC-delta (PKC-delta; peptide concentration 10 uM)
115 (NRKKKRTSFKRKA) [compound 115]					11	10	94	99
137 (PSKSPSKKKKKFRTPSFLKK) [compound 137]					4	5	38	16
135 (KKKFRTPSFLKKSKK) [compound 135]					11	13	40	25
162 (KKKFSFKKPFKLSGLSFKRN) [compound 162]					7	4	21	13
146 (QAQRQIKRGAPPRRSSIRNA) [compound 146]					32	56	33	14
159 (LYARLARAYRRSQRASFKRA) [compound 159]					25	41	15	12
134 (RSRSRSRSKSKDKRKSRKRS) [compound 134]					5	5	44	16
122 (RAITSTLASSFKRRR) [compound 122]					20	17	55	24
118 (RPQNTLKASKKKKRASFKRK) [compound 118]					46	57	73	60
144 (LSSMFGTLPRKSRKGSVRKQ) [compound 144]					16	54	35	28
128 (QQVDRERPHVRRRRGTFKRS) [compound 128]					14	9	46	57
130 (EYLERRASRRRAV) [compound 130]					36	39	46	20
147 (RDIRQSPKRGFLRSASLGRR) [compound 147]					28	34	27	13
117 (NRKKKRTSFKRKA) [compound 117]					20	11	100	79
124 (PRLIRRGSKKRPAR) [compound 124]					45	32	69	43
138 (EYLERRASRRRAV) [compound 138]					31	61	49	28

— patent US20050064507A1, “Determining kinase specificity” (priority 2003, published 2005)
